According to US20020031818A1, “Modification of Mdm2 activity” (priority 2000, published 2002):

Legend:
[1] = target: Mdm2 (Homo sapiens, UniProt Q00987); experiment: Mdm2 sumoylation in EJ cells; assay type: cell-based, mouse; set-up: expressed in transfected cells; host or cells: EJ mouse fibroblasts (p19ARF null); settings: EJ cells (lack p19ARF), Flag-Mdm2 and p19ARF constructs 2 μg
Method: FIG. 13A-13E. A. Bacterially expressed and purified Mdm2 (1 μg) was incubated with ^32P-labeled Sumo-1, purified Aos1/Uba2 and Ubc9 (0.5 μg) for 60 min at 37° C. in conjugation buffer. For indicated time-periods in vitro translated wt or mutant p19^ARF ([…]) was added to the sumoylation reactions. Upper panel depicts the amount of Sumoylated Mdm2, lower panel reveal the level of Mdm2 and Sumo-Mdm2 in Coomassie blue gel. B. Bacterially expressed and purified Mdm2 (1 μg) was incubated with in vitro-translated ^35S-Sumo, purified Aos1/Uba2 and Ubc9 (0.5 μg) for 60 min at 37° C. in conjugation buffer in the presence of the increasing amounts of bacculovirus-expressed p19^ARF (0, 0.1, 0.5, 1 μg; lanes 1-4 respectively). Bead-bound complexes were washed before being denatured in 3× Sample Buffer. Proteins were separated on 8% SDS-PAGE. Gel was stained with Coomassie blue to verify equal Mdm2 input (lower panel), dried and exposed to X-ray film, which depicts SUMO-1 conjugation to Mdm2 in the presence of the indicated p19 forms (upper panel). […] (Left) Immunoprecipitated Mdm2 was detected using monoclonal Mdm2 antibodies (2A10, left). […] SUMO-conjugation to Mdm2 was detected using monoclonal antibodies to SUMO-1 (top). […]

[2] = test system: Mdm2; experiment: Pulse-chase half-life of Mdm2 wt or S218A in normal human fibroblasts; assay type: cell-based
Method: FIG. 16A-16F. A. Activation of p38 increases Mdm2 ubiquitination in vivo. EJ cells were transfected with indicated plasmids. 36 h after transfection cells were harvested and Mdm2 was immunoprecipitated (2A10 antibodies). […] Middle panels show expression levels of Mdm2 and p19^ARF. Lower panels depict phospho-and total p38 levels. B. Mutation at Ser218 of Mdm2 abolishes p38 induced Mdm2 ubiquitination. Normal human fibroblasts were transfected with indicated plasmids. 36 h after transfection cells were harvested and lysed. Mdm2 was immunoprecipitated and proteins were separated on a 8% SDS-PAGE. […] C. Mutation at Ser218 of Mdm2 abrogates p19^ARF-induced Mdm2 degradation. […] Upper panels depict Mdm2-Sumo conjugates (detected via Sumo-1 anitbodies), as well as the 75 kD and 90 kD forms of Mdm2 (detected via Mdm2 antibodies). […] To monitor possible changes in amount of p19 bound to Mdm2 association was monitored using normalized Mdm2 levels at the indicated time-points after UV-treatment.
Normal human fibroblasts (NHF) were transfected with wt or S218A forms of Mdm2 expression vectors (4 μg). ^35S-methionine (1 mCi) was added to the cell cultures 24 h after transfection for 5 h (pulse) followed by chase (2 mM cold methionine) for the indicated time points. […] Immunoprecipated Mdm2 was washed, separated on 10% SDS-PAGE, and analyzed by autoradiography.

[3] = target: T1, GST-Mdm2 (Homo sapiens, UniProt Q00987); experiment: In vitro conjugation of SUMO-1 to GST-Mdm2 (in vitro sumoylation); assay type: biochemical
T1 construct: made in house
T1 sequence (Q00987 whole entry): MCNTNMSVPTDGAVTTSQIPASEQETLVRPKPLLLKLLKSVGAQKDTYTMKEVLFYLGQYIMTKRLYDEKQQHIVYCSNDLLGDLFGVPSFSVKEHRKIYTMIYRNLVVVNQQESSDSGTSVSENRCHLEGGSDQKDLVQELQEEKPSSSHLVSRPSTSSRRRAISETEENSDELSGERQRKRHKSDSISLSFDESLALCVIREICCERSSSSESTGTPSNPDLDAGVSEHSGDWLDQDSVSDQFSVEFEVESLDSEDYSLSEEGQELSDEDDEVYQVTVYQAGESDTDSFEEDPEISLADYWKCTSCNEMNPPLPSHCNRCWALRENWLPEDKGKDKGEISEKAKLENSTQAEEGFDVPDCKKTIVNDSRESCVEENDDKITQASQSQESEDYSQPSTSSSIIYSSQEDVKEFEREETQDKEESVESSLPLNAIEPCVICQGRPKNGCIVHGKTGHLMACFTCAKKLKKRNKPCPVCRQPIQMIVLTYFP
Method: A. Time dependent Mdm2 sumoylation in vitro. Bacterially expressed and purified GST-Mdm2 was subjected to in vitro sumoylation reaction in the presence of E1, Ubc9, and ^35S-Sumos. Reaction was terminated after 10,30,50 or 60 minutes, Proteins were separated on 8% gel, Commassie stained, dryed and exposed overnight (upper panel). Lower panel depicts Commassie blue staining of Mdm2 forms. […] (Upper part) The specific Ubc-9-binding site peptide or a nonspecific peptide was added to the reaction for the indicated time periods. […] The lower panel depicts a Coomassie staining visualizing relative amounts of sumoylated and non-sumoylated forms of purified GST-Mdm2. C. The Mdm2 sumoylation assay was carried out in the presence of Ubc-9-binding site peptide (mu9bs) or a nonspecific peptide (mu9bs) which were added to the reaction at the indicated concentrations. […] Mdm2/p53 double null cells were transfected with Flag-tagged Mdm2, HA-tagged Sumo-1 and increasing amounts of the specific or nonspecific Ubc-9-peptides, respectively. Cells were harvested 36 h later and 500 μg of protein was immunoprecipitated using Mdm2 antibodies (2A10). Immunoprecipitated Mdm2 levels were detected using 2A10 antibodies (top). The same membrane was stripped and reprobed using monoclonal antibodies against Sumo-1 (Zymed, middle) to visualize the level of Sumo-1 conjugation to Mdm2 after Ubc-9-peptide expression.
A. Bacterially expressed and purified Mdm2 (1 μg) was incubated with ^32P-labeled Sumo-1, purified Aos1/Uba2 and Ubc9 (0.5 μg) for 60 min at 37° C. in conjugation buffer. For indicated time-periods in vitro translated wt or mutant p19^ARF (0.5 mg) was added to the sumoylation reactions. Upper panel depicts the amount of Sumoylated Mdm2, lower panel reveal the level of Mdm2 and Sumo-Mdm2 in Coomassie blue gel. B. Bacterially expressed and purified Mdm2 (1 μg) was incubated with in vitro-translated ^35S-Sumo, purified Aos1/Uba2 and Ubc9 (0.5 μg) for 60 min at 37° C. in conjugation buffer in the presence of the increasing amounts of bacculovirus-expressed p19^ARF (0, 0.1, 0.5, 1 μg; lanes 1-4 respectively). Bead-bound complexes were washed before being denatured in 3× Sample Buffer. Proteins were separated on 8% SDS-PAGE. Gel was stained with Coomassie blue to verify equal Mdm2 input (lower panel), dried and exposed to X-ray film, which depicts SUMO-1 conjugation to Mdm2 in the presence of the indicated p19 forms (upper panel). […] Double-null cells were transfected with Flag-tagged Mdm2 (1.5 μg), HA-tagged SUMO (1.5 μg) and p19 wt (1.5 μg). Cells were treated with MG132 (40 mM) for 5 h prior to protein preparation. […] (Left) Immunoprecipitated Mdm2 was detected using monoclonal Mdm2 antibodies (2A10, left). […]

Sequence of Mdm2 (Homo sapiens, UniProt Q00987) (Q00987 whole entry): as above

B1: p19^ARF: Mdm2-regulating protein; in vitro translated, bacculovirus-expressed or transfected (protein)
chain: MGRRFLVTVRIQRAGRPLQERVFLVKFVRSRRPRTASCALAFVNMLLRLERILRRGPHRNPGPGDDDGQRSRSSSSAQLRCRFELRGPHYLLPPGARRSAGRLPGHAGGAARVRGSAGCARCLGSPAARLGPRAGTSRHRAIFAFRWVLFVFRWVVFVYRWERRPDRRA
Mdm2 sumoylation in EJ cells upon co-expression [1]: inhibition of Mdm2 sumoylation
effect on half-life of Mdm2 S218A mutant [2]: minimal effects
in vitro sumoylation of Mdm2 with p19ARF purified from insect cells ([3]; 0, 0.1, 0.5, 1 μg bacculovirus-expressed p19ARF): inhibited in a dose-dependent manner
GST-Mdm2 sumoylation in vitro with in vitro-translated p19 forms ([3]; in vitro-translated wt or mutant p19ARF): efficient inhibition of GST-Mdm2 sumoylation in vitro
